One may read the Kd as the equilibrium constant for the complex coming apart. A high value points to a looser complex.

This assay deals with CID1R^ML (maximum likelihood reconstructed ancestral CID from the time of the first whole genome duplication). As to the kind of experiment: ITC.

Take TPPQALQQLLQTLKSPSSPQQQQQVLQILKSNPQLMAAFIKQRSQHQQ (domain or fragment) [NCBDD/P of the ITC example in Figure S1e (label lost)]: binding was characterised by a dissociation constant (Kd) of 2900 ± 100 nM.

The values above are taken from article doi:10.1101/2020.03.27.012328 (bioRxiv, 2020).
